Assay results: the supplement of paper PMC10065799, “High-throughput profiling of sequence recognition by tyrosine kinases and SH2 domains using bacterial peptide display” (eLife, 2023)

Assays:
AncSZ = experiment: phosphorylation enrichment, bacterial display (enrichment ratio); higher = better substrate or ligand; peptides without Tyr show the background
FGFR3 = FGFR3 (UniProt P22607); experiment: as above
Fyn = Fyn (UniProt P06241); experiment: as above
Fes = Fes (UniProt P07332); experiment: as above
MERTK = MERTK (UniProt Q12866); experiment: as above
Jak2 = Jak2 (UniProt O60674); experiment: as above
FGFR1 = FGFR1 (UniProt P11362); experiment: as above
c-Abl (mouse) = experiment: as above
Fer (mouse) = experiment: as above
EPHB1 = EPHB1 (UniProt P54762); experiment: as above
c-Src = experiment: as above
Hck = Hck (UniProt P08631); experiment: as above
EPHB2 = EPHB2 (UniProt P29323); experiment: as above
Grb2 SH2 = Grb2 SH2 (UniProt P62993); experiment: SH2 binding enrichment of the phosphorylated peptide, bacterial display (enrichment ratio); higher = better substrate or ligand; peptides without Tyr show the background
c-Src SH2 = experiment: as above
SHP2-C SH2 = experiment: as above
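Throughout, for SH2 binding enrichment of the phosphorylated peptide, bacterial display: peptide library displayed on the E. coli surface as eCPX fusions, selected cells deep-sequenced, score is each peptide's frequency after selection divided by its frequency in the input.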
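Throughout, for phosphorylation enrichment, bacterial display: 11-residue human phosphosite peptides and single-mutation variants displayed on the E. coli surface, counted by deep sequencing, each peptide's frequency after selection divided by its frequency in the unselected input library; frequency after pTyr selection over input frequency; kinase dosed for 20-30% of maximal phosphorylation in three min.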

Sequence of Fes (P07332 whole entry, looked up): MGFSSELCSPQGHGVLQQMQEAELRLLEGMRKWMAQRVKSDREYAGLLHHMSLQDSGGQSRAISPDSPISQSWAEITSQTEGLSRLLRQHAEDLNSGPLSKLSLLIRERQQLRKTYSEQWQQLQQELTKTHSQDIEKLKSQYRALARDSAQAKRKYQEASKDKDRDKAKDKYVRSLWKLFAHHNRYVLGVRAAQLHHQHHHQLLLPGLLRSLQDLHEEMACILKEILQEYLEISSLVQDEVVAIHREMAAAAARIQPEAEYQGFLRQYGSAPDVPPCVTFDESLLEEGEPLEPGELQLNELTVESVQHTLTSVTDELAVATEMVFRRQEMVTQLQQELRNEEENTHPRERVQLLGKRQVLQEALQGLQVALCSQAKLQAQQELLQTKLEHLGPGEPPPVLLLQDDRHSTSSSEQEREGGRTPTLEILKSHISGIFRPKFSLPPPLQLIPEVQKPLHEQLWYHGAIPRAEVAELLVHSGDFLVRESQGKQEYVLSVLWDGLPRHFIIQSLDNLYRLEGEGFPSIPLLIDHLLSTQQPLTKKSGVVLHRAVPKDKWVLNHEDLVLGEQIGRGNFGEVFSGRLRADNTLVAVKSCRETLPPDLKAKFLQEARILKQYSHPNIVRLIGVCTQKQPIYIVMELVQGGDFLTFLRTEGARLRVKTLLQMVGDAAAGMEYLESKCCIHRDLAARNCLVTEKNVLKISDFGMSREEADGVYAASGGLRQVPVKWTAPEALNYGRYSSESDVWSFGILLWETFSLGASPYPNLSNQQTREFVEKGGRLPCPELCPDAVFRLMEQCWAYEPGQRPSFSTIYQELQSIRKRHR
Sequence of FGFR3 (P22607 whole entry, looked up): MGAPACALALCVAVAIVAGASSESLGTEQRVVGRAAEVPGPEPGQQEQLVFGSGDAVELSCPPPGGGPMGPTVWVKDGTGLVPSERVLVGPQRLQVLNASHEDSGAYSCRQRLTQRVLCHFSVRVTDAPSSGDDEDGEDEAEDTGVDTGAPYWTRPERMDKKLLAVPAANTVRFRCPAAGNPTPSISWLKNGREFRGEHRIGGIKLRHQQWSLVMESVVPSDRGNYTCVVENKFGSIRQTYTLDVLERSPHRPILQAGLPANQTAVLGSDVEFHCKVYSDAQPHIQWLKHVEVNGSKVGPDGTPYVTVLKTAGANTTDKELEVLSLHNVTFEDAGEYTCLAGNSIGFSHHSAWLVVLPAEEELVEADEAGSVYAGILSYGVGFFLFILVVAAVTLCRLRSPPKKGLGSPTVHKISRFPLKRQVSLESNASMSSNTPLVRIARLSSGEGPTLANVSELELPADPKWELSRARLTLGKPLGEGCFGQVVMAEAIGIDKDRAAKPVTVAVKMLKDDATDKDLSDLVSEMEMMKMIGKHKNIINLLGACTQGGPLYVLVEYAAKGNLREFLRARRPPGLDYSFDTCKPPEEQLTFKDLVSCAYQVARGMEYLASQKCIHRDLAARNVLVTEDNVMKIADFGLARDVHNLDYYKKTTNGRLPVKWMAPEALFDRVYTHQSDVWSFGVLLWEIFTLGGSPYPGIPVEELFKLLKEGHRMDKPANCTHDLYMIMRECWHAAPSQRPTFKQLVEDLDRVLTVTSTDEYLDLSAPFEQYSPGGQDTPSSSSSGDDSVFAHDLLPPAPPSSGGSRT
Sequence of Grb2 SH2 (P62993 whole entry, looked up): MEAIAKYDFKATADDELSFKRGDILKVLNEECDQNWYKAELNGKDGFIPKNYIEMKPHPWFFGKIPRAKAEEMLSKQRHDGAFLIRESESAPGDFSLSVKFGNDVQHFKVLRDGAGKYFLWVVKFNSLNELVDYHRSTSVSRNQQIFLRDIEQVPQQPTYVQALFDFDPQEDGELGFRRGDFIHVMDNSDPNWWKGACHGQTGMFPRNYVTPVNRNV
Sequence of Jak2 (O60674 whole entry, looked up): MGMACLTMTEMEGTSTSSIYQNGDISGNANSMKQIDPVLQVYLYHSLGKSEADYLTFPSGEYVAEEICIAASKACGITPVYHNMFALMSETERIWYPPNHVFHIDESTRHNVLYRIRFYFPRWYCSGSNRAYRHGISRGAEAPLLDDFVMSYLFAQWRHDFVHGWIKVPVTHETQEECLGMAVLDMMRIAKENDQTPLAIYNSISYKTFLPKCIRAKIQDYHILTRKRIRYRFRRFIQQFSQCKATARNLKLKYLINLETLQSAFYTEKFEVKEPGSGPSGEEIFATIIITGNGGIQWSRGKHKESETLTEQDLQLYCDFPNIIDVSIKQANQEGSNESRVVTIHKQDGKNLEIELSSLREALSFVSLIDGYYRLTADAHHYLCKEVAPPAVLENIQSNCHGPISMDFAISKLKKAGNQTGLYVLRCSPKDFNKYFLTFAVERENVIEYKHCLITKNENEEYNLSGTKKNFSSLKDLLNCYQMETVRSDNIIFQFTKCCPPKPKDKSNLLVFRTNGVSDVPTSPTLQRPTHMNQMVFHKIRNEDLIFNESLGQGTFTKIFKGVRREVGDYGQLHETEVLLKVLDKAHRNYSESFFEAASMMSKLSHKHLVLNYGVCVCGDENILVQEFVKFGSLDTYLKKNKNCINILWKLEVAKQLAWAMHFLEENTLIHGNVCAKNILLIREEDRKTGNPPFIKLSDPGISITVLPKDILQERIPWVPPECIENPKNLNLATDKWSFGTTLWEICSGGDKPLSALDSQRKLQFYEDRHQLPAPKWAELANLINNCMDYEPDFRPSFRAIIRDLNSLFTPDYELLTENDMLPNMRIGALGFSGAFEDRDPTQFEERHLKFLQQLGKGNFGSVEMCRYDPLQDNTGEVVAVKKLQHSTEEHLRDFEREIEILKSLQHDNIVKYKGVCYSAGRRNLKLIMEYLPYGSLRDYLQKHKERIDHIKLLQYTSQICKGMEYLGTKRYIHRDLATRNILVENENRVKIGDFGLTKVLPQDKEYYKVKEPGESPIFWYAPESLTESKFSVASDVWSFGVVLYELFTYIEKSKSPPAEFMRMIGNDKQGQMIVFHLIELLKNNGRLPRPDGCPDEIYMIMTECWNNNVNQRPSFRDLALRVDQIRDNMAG
Sequence of Hck (P08631 whole entry, looked up): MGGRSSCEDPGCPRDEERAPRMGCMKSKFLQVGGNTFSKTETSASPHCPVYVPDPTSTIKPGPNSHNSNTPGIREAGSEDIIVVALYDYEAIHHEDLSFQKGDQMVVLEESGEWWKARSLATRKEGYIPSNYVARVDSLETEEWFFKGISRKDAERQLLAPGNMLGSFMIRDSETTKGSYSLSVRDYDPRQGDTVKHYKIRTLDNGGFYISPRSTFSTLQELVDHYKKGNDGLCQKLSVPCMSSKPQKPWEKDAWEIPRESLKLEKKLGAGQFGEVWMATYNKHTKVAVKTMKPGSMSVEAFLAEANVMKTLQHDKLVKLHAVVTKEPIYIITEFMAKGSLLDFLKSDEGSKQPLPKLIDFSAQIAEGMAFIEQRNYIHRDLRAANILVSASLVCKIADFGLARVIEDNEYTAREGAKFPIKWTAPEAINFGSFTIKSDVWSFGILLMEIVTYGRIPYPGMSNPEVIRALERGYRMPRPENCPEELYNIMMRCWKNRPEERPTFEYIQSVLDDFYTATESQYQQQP
Sequence of FGFR1 (P11362 whole entry, looked up): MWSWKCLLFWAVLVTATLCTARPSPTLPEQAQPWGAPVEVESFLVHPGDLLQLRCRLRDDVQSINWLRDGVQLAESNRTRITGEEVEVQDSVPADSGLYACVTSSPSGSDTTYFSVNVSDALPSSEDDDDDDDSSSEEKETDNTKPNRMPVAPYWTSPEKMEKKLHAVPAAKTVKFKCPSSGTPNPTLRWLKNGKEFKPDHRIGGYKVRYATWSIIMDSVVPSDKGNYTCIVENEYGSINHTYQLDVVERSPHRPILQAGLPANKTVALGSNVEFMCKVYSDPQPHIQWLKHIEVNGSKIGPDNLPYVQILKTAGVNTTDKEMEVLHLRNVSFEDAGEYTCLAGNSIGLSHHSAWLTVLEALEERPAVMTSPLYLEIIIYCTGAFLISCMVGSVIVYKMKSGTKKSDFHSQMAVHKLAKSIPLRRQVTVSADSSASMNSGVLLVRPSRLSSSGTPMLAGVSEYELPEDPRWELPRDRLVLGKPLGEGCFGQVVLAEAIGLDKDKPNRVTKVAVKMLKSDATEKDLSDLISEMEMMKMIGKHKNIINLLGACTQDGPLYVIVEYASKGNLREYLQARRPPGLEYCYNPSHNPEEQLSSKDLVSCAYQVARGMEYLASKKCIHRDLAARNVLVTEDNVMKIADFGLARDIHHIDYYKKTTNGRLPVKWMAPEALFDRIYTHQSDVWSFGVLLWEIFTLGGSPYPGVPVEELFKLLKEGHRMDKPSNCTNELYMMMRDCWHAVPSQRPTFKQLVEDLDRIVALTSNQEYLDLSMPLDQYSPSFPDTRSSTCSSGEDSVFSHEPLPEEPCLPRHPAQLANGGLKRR
Sequence of Fyn (P06241 whole entry, looked up): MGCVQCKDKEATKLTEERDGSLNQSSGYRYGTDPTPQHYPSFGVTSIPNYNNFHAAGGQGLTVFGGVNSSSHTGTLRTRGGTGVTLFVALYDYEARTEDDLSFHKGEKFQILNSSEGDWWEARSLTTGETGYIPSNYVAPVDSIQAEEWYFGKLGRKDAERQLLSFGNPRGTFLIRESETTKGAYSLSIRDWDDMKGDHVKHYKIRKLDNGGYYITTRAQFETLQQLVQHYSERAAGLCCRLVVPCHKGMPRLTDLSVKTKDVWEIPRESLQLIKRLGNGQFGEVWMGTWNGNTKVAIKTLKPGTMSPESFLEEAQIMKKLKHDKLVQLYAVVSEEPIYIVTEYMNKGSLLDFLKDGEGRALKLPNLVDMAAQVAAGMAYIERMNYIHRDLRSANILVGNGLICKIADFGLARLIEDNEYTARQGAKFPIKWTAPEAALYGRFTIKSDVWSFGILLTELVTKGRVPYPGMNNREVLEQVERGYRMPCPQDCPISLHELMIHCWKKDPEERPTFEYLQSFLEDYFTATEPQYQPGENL

| Sequence | phosphorylation enrichment (AncSZ) | phosphorylation enrichment (FGFR3) | phosphorylation enrichment (Fyn) | phosphorylation enrichment (Fes) | phosphorylation enrichment (MERTK) | phosphorylation enrichment (Jak2) | phosphorylation enrichment (FGFR1) | phosphorylation enrichment (c-Abl (mouse)) | phosphorylation enrichment (Fer (mouse)) | phosphorylation enrichment (EPHB1) | phosphorylation enrichment (c-Src) | phosphorylation enrichment (Hck) | phosphorylation enrichment (EPHB2) | SH2 binding enrichment (Grb2 SH2) | SH2 binding enrichment (c-Src SH2) | SH2 binding enrichment (SHP2-C SH2) |
| --- | --- | --- | --- | --- | --- | --- | --- | --- | --- | --- | --- | --- | --- | --- | --- | --- |
| LGKGSYAKVRS [TSSK2_Y23_K27R] | 1.02 | 0.699 | 0.725 | 0.733 | 0.744 | 1.33 | 0.558 | 1.12 | 0.626 | 0.395 | 0.792 | 0.586 | 0.408 | 1.73 | 2.29 | 2.14 |
| NVFGNYNNQSS [HNRNPA1_Y318_D314V] | 0.475 | 0.546 | 0.315 | 0.537 | 0.289 | 0.489 | 0.399 | 0.352 | 0.448 | 0.421 | 0.293 | 0.424 | 0.467 | 0.78 | 0.397 | 0.508 |
| AAILGYCHGEA [XPC_Y669_R671H] | 0.975 | 0.733 | 0.535 | 1.03 | 0.827 | 0.725 | 0.523 | 0.7 | 0.474 | 0.581 | 0.373 | 0.53 | 0.75 | 0.855 | 0.549 | 0.701 |
| FTGDIYSSSNL [LZTR1_Y141_N143S_YF] | 0.748 | 0.588 | 5.8 | 0.652 | 1.7 | 0.588 | 0.494 | 2.35 | 2.31 | 0.782 | 4.35 | 5.66 | 1.03 | 0.793 | 0.476 | 0.567 |
| PRLLRYLQLDF [ASB10_Y457] | 1.39 | 0.873 | 0.692 | 1.67 | 0.701 | 1.53 | 0.648 | 1.04 | 0.662 | 0.995 | 0.616 | 0.65 | 0.73 | 1.27 | 1.11 | 1.6 |
| NLNGKYFKPRA [ANGPTL3_Y417_N418Y_YF] | 0.646 | 0.383 | 0.335 | 0.56 | 0.389 | 0.543 | 0.363 | 0.469 | 0.297 | 0.538 | 0.43 | 0.367 | 0.365 | 1.21 | 0.961 | 1.16 |
| KPVEEYANCHL [TF_Y593] | 0.96 | 0.65 | 0.472 | 1.11 | 0.544 | 0.915 | 0.61 | 0.755 | 0.481 | 0.623 | 0.547 | 0.613 | 0.549 | 1.1 | 1.25 | 0.758 |
| YSMGCYEIYLG [HMGCL_Y198_S201Y] | 4.43 | 2.19 | 6.34 | 2.02 | 4.69 | 1.41 | 2.06 | 1.37 | 5.57 | 4.78 | 5.79 | 4.95 | 8.68 | 0.713 | 0.627 | 0.641 |
| LERFIYNREEF [HLA-DPB1_Y59_F64Y_YF] | 1.68 | 1.79 | 1.08 | 1.49 | 0.652 | 1.39 | 0.632 | 0.857 | 0.719 | 0.63 | 2.07 | 1.29 | 0.76 | 0.704 | 0.607 | 0.631 |
| LLLLFCVVRYC [MPZ_Y177_Y177C] | 3.01 | 2.14 | 1.78 | 2.07 | 2.94 | 3.14 | 3.08 | 4.58 | 1.14 | 2.47 | 2.84 | 2.16 | 2.48 | 2.53 | 1.41 | 1.58 |
| FSIDHYLGKEM [G6PD_Y202_R198S_YF] | 1.06 | 0.749 | 0.545 | 1.2 | 0.421 | 1.16 | 0.579 | 0.845 | 0.511 | 0.669 | 0.464 | 0.537 | 0.61 | 0.831 | 0.643 | 0.953 |
| KILPEYLSNWT [AIFM1_Y347] | 0.995 | 0.673 | 0.463 | 0.915 | 0.509 | 0.983 | 0.543 | 0.677 | 0.424 | 0.428 | 0.503 | 0.481 | 0.513 | 1.03 | 0.691 | 0.873 |
| VAFLFYKSIGP [ADGRL4_Y302_V300L_YF] | 1.38 | 0.837 | 0.5 | 1.6 | 0.523 | 1.98 | 0.739 | 1.12 | 0.55 | 0.689 | 0.558 | 0.488 | 0.664 | 0.542 | 0.301 | 0.457 |
| CSSPTYRDCLQ [LARGE2_Y682_R677C] | 0.812 | 0.738 | 0.402 | 0.892 | 0.37 | 0.846 | 0.49 | 0.503 | 0.408 | 0.5 | 0.484 | 0.473 | 0.436 | 0.94 | 1 | 1.15 |
| SSKILYHIIKG [CDH17_Y489] | 0.565 | 0.923 | 0.45 | 0.798 | 1.12 | 0.63 | 1.22 | 0.438 | 0.383 | 0.395 | 0.453 | 0.655 | 0.529 | 0.958 | 6.59 | 3.78 |
| GCRSKYVGLWG [KCNQ1_Y184] | 0.61 | 0.506 | 0.38 | 0.708 | 0.463 | 0.605 | 0.432 | 0.511 | 0.408 | 0.41 | 0.452 | 0.363 | 0.456 | 1.01 | 0.779 | 1.05 |
| GLAKEYTDPET [CSNK1G2_Y195_I196T] | 1.28 | 0.92 | 0.634 | 1.07 | 0.473 | 1.9 | 0.323 | 0.662 | 0.398 | 0.494 | 0.339 | 0.579 | 0.736 | 0.873 | 1.1 | 0.671 |
| SLLTDCSPQLQ [OTC_Y345_Y345C] | 0.999 | 0.707 | 0.454 | 1.06 | 0.441 | 0.905 | 0.518 | 0.768 | 0.522 | 0.567 | 0.475 | 0.554 | 0.548 | 0.975 | 0.483 | 0.765 |
| SFLFRYADDSF [RAB3C_Y50] | 1.01 | 0.582 | 0.45 | 1.01 | 0.45 | 0.835 | 0.475 | 0.582 | 0.414 | 0.545 | 0.434 | 0.525 | 0.515 | 0.988 | 0.589 | 1.21 |
| TLSGIYQFIIA [FOXL2_Y81_YF] | 1.81 | 7.18 | 6.83 | 3.16 | 10.1 | 1.2 | 10.4 | 2.71 | 15 | 14.2 | 5.96 | 8.44 | 9.15 | 1.49 | 1.24 | 1.13 |
| WSFNLYDINKD [KCNIP3_Y174_A170S] | 1.36 | 0.819 | 1.07 | 1.45 | 0.796 | 1.12 | 0.566 | 0.68 | 1.01 | 0.894 | 0.88 | 1.29 | 0.875 | 0.676 | 0.469 | 0.676 |
| EQLQSYQAEII [KRT33A_Y268] | 1.12 | 0.821 | 0.516 | 1.16 | 0.45 | 1.15 | 0.54 | 0.988 | 0.526 | 0.524 | 0.555 | 0.518 | 0.571 | 0.708 | 0.472 | 0.683 |
| PVDVAYRRGYF [PLEC_Y2967] | 0.867 | 0.588 | 0.642 | 0.661 | 0.399 | 0.556 | 0.565 | 0.743 | 0.601 | 0.385 | 0.361 | 0.587 | 0.577 | 0.876 | 0.456 | 0.519 |
| KVGNEYITKGQ [MYH7_Y410_V411I] | 0.593 | 0.443 | 0.376 | 0.682 | 0.356 | 0.561 | 0.444 | 0.564 | 0.315 | 0.358 | 0.403 | 0.399 | 0.414 | 0.896 | 0.43 | 0.495 |
| AKIDGYITSFR | 0.795 | 0.573 | 0.439 | 0.957 | 0.468 | 0.535 | 0.513 | 0.573 | 0.468 | 0.427 | 0.407 | 0.381 | 0.411 | 1.02 | 0.625 | 0.936 |
| RRFSSYSQMEN [PKP1_Y120] | 2.29 | 1.18 | 1.48 | 2.57 | 1.06 | 0.657 | 1.34 | 0.808 | 0.833 | 0.984 | 0.614 | 0.896 | 0.89 | 0.79 | 0.559 | 0.774 |
| STEVIYQPRRK [STK11_Y36] | 0.603 | 0.539 | 0.52 | 0.523 | 0.643 | 0.612 | 0.424 | 1 | 0.473 | 0.437 | 0.704 | 0.683 | 0.527 | 0.585 | 0.376 | 0.467 |
| HRGHLYLAIEY [TEK_Y899_Y897H] | 1.51 | 1.23 | 0.447 | 1.56 | 0.495 | 0.977 | 0.942 | 0.599 | 0.741 | 1.08 | 0.344 | 0.572 | 1.16 | 1.36 | 0.341 | 0.654 |
| RRRLIYRCQVG [NR2E3_Y81] | 0.776 | 0.601 | 0.915 | 1.05 | 0.735 | 0.679 | 0.854 | 0.697 | 0.587 | 0.76 | 0.556 | 0.884 | 0.983 | 0.727 | 0.286 | 0.566 |
